Numbering of substitutions follows the chain as printed.
What was measured:
human CD30 [1] = target: T1, human CD30 (human, UniProt P28908 19-595); assay: flow cytometry, HDLM-2 cells
T1 construct: also called huCD30; TNFRSF8
T1 sequence: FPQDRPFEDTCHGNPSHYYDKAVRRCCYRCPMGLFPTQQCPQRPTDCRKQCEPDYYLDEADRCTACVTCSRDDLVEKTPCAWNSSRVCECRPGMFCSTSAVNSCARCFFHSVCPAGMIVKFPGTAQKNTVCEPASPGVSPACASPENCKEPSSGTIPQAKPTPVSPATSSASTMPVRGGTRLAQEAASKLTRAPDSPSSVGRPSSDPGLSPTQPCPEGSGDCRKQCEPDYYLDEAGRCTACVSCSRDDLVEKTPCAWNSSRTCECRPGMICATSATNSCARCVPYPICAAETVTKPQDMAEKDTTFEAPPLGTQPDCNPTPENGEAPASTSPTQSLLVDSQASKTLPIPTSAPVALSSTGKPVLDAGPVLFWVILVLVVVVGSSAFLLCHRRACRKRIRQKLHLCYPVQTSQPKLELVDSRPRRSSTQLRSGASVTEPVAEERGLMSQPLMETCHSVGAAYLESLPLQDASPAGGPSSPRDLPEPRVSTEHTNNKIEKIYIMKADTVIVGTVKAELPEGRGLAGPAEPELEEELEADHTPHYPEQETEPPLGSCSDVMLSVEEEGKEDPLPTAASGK
Outline: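 CD3×CD30 bispecific antibodies, 3-fold serial dilutions from 0.0046 to 10 μg/mL, incubated with 3×10⁴ SU-DHL-1 (ALCL) or HDLM-2 (HL) cells for 30 min at 4 °C, then secondary antibody 30 min at 4 °C. Live cells gated by FSC/SSC and TO-PRO-3 exclusion; binding curves fitted by four-parameter sigmoidal regression.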

human CD30 [2] = target: T1, human CD30; assay: flow cytometry, L-428 cells, experiment N = 1
[3] = target: T2, cynomolgus monkey (Macaca fascicularis) CD30 (cynomolgus monkey, UniProt P28908 19-595 (human entry)); assay: flow cytometry, HEK293 cells transfected with mfCD30
T2 construct: also called mfCD30
T2 chain: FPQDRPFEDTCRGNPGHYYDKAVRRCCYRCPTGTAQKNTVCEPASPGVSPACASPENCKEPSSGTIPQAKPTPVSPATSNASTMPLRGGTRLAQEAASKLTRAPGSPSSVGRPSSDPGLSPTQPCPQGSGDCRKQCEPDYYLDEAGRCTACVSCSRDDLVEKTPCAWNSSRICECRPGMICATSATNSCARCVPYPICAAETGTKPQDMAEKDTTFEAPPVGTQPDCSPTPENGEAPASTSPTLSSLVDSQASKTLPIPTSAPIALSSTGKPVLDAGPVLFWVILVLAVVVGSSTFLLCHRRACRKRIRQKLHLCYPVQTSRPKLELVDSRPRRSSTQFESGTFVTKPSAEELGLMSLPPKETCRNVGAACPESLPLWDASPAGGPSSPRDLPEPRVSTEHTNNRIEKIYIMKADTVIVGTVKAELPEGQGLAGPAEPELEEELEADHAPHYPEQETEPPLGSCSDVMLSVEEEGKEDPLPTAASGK
Method: (§1) Cells (3×10⁴ cells/well) were incubated in polystyrene 96-well round-bottom plates (Thermo Scientific, cat. no. 163320) with serial dilutions of antibodies (ranging from 0.0002 to 50 μg/mL in 4-fold dilution steps) in 50 μL staining buffer at 4° C. for 30 min. Experiments were performed in technical duplicate. After washing twice in staining buffer, cells were incubated in 50 μL secondary antibody at 4° C. for 30 min. As a secondary antibody, R-PE-conjugated goat-anti-human IgG (Jackson ImmunoResearch, UK; cat. no. 109⁻¹¹⁶-098) diluted 1:200 in staining buffer was used. Cells were washed twice in staining buffer, resuspended in 30 μL staining buffer containing 0.4% EDTA and the ToPro-3 viability marker (Invitrogen, cat. no. T3605) diluted 1:10,000. Cells were analyzed on an iQue Screener (Intellicyt Corporation, USA). Binding curves were analyzed using non-linear regression (sigmoidal dose-response with variable slope) using GraphPad Prism V9.0.0 software (GraphPad Software, San Diego, CA, USA).

human CD30 [4] = target: T1, human CD30; assay: flow cytometry, DEL cells (ALCL), range of 3 tests
Method: (§2) Cells (3×10⁴ cells/well) were incubated in polystyrene 96-well round-bottom plates (Greiner bio-one, cat. no. 650180) with serial dilutions of antibodies (range 0.0046 to 10 μg/mL in 3-fold dilution steps) in 50 μL staining buffer at 4° C. for 30 min. After washing twice in staining buffer, cells were incubated with 50 μL secondary antibody at 4° C. for 30 min. […] Next, cells were washed twice in staining buffer, resuspended in 100 μL staining buffer supplemented with TO-PRO-3 iodide (Thermo Fisher Scientific; cat. no. T3605; 1:8000 dilution) and analyzed on a FACSCelesta flow cytometer (BD Biosciences, USA). Live cells were gated based on FSC/SSC and absence of TOPRO-3 staining. Binding curves were analyzed by non-linear regression of log-transformed data (sigmoidal dose-response with variable slope, four parameters) using GraphPad Prism V7.02 software (GraphPad Software, San Diego, CA, USA).

human CD30 [5] = target: T1, human CD30; assay: flow cytometry, L-540 cells (HL), range of 3 tests
Method: as §2

human CD30 [6] = target: T1, human CD30; assay: flow cytometry, HH cells (CTCL), average of 3 tests
Method: as §2

human CD30 [7] = target: T1, human CD30; assay: flow cytometry, JVM-2 cells (MCL), range of 3 tests
Method: as §2

human CD30 [8] = target: T1, human CD30; assay: flow cytometry, SUP-T1 cells (TLL), range of 2 tests
Method: as §2

human CD30 [9] = target: T1, human CD30; assay: flow cytometry, JVM-2 cells (MCL), average of 3 tests
Method: as §2

human CD30 [10] = target: T1, human CD30; assay: flow cytometry, KARPAS-299 cells (ALCL), average of 2 tests
Method: as §2

human CD30 [11] = target: T1, human CD30; assay: flow cytometry, HEK293 cells transfected with human CD30
Method: as §1

human CD30 [12] = target: T1, human CD30; assay: flow cytometry, SUP-T1 cells (TLL), average of 2 tests; SUP-T1 cells (TLL), average of 2 tests
Method: as §2

B1: bsG1-huCD3-FEALxCD30-MDX060-FEAR (bispecific antibody, human IgG1, kappa, lambda)
heavy 1: not shown
light 1: not shown
heavy 2: QVQLQQWGAGLLKPSETLSLTCAVYGGSFSAYYWSWIRQPPGKGLEWIGDINHGGGTNYNPSLKSRVTISVDTSKNQFSLKLNSVTAADTAVYYCASLTAYWGQGSLVTVSSASTKGPSVFPLAPSSKSTSGGTAALGCLVKDYFPEPVTVSWNSGALTSGVHTFPAVLQSSGLYSLSSVVTVPSSSLGTQTYICNVNHKPSNTKVDKRVEPKSCDKTHTCPPCPAPEFEGGPSVFLFPPKPKDTLMISRTPEVTCVVVAVSHEDPEVKFNWYVDGVEVHNAKTKPREEQYNSTYRVVSVLTVLHQDWLNGKEYKCKVSNKALPAPIEKTISKAKGQPREPQVYTLPPSREEMTKNQVSLTCLVKGFYPSDIAVEWESNGQPENNYKTTPPVLDSDGSFFLYSRLTVDKSRWQQGNVFSCSVMHEALHNHYTQKSLSLSPG
light 2: DIQMTQSPTSLSASVGDRVTITCRASQGISSWLTWYQQKPEKAPKSLIYAASSLQSGVPSRFSGSGSGTDFTLTISSLQPEDFATYYCQQYDSYPITFGQGTRLEIKRTVAAPSVFIFPPSDEQLKSGTASVVCLLNNFYPREAKVQWKVDNALQSGNSQESVTEQDSKDSTYSLSSTLTLSKADYEKHKVYACEVTHQGLSSPVTKSFNRGEC
notes: also called bsG1-huCD3xCD30-MDX060
EC50 (read off the curve) (human CD30 [1]): ~0.3 µg/mL | EC50 (human CD30 [2]): 0.154 µg/mL

B2: bsG1-huCD3-FEALxCD30-MDX060-FERR (bispecific antibody, human IgG1, kappa, lambda)
heavy 1: not shown
light 1: not shown
heavy 2: B1 heavy 2 with G231R, A260D
light 2: B1 light 2
notes: Bispecific IgG1 made by controlled Fab-arm exchange; also called bsIgG1-huCD3-FEALxCD30-MDX060-FERR; bsG1-huCD3×CD30-MDX060
binding result [3]: binds | EC50 (human CD30 [4]): 0.143 to 0.267 µg/mL | EC50 (human CD30 [5]): 0.202 to 0.469 µg/mL | EC50 (human CD30 [6]): 0.195 µg/mL | EC50 (human CD30 [7]): 0.107 to 0.141 µg/mL | EC50 (human CD30 [8]): 0.257 to 0.434 µg/mL | EC50 (human CD30 [9]): 0.126 µg/mL | EC50 (human CD30 [10]): 0.202 µg/mL | EC50 (read off the curve) (human CD30 [11]): ~0.1 µg/mL | EC50 (human CD30 [12]): 0.346 µg/mL

Reference: patent US20260234255A1 (Genmab, published 2026)
